Values of other authors, collected in article PMC7677405.
pKd: −log10 of the molar value.

Biological target: insulin receptor (Homo sapiens) (UniProt P06213)
UniProt P06213, sequence (P06213 763-1382): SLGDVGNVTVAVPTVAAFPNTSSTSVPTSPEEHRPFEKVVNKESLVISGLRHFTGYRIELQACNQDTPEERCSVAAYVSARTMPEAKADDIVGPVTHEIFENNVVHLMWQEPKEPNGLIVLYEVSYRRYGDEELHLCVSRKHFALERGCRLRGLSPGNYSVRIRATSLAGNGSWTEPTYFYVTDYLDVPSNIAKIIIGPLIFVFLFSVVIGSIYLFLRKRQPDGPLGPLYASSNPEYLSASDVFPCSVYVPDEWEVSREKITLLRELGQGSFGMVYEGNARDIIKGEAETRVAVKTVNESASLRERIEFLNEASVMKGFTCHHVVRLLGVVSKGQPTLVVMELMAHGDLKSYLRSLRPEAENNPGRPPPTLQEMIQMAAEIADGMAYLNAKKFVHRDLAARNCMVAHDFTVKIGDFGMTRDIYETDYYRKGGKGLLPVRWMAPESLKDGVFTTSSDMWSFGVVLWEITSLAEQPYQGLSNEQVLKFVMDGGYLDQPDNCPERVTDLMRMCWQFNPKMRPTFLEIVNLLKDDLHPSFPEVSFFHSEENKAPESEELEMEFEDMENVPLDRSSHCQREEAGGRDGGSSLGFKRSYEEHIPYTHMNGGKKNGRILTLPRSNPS

insulin, sequence (P01308 90-110): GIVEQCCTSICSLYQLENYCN

pKd: 7.55
Substance: insulin (from UniProt P01308)
